{"source": "patent US20080064629A1", "about": "“Amphiregulin as a Protective Agent in Acute Hepatic Injury” (priority 2004, published 2008)", "molecules": {"B1": {"name": "amphiregulin (protein)", "chain": "SVRVEQVVKPPQNKTESENTSDKPKRKKKGGKNGKNRRNRKKKNPCNAEFQNFCIHGECKYIEHLEAVTCKCQQEYFGERCGEKSMKTHSMIDSSLSK", "notes": "polypeptide growth factor belonging to the EGF family, ligand of EGF receptor; human recombinant AR (Sigma) used"}}, "key": {"rat hepatocytes": {"test_system": "rat hepatocytes", "assay": "DNA synthesis ([3H]thymidine incorporation) in cultured rat hepatocytes", "assay_type": "cell-based", "settings": "increasing concentrations of AR, 30 h of treatment", "method": "For DNA synthesis, rat hepatocytes were plated to a density of 3×10^4 cells/well in 96-well plates coated with collagen in MEM medium supplemented with 10% FCS. Five hours after plating, the medium was changed and cells were maintained in absence of serum for another 20 hours. DNA synthesis was assayed after 30 h of treatment with AR. A pulse of [^3H]thymidine was administered (1 μCi/well)(Amersham Biosciences, Piscataway, N.J., USA) 22 h after the addition of AR. Cells were harvested, and the incorporation of thymidine was determined with a scintillation counter. Evaluations were made of the effect of AR on DNA synthesis in the presence of MEK1 inhibitor, PD98059, PI-3K inhibitor, LY294002, p38 MAPK inhibitor, SB202190, JNK inhibitor, SP600125, and of the EGF-R tyrosine kinase activity inhibitor, PD153035—all supplied by Calbiochem."}, "isolated rat hepatocytes": {"test_system": "isolated rat hepatocytes", "assay": "TGFα and CT-1 gene expression in cultured rat hepatocytes treated with AR", "assay_type": "cell-based", "settings": "AR treatment, different periods of time", "method": "Hepatocytes were isolated from male Wistar rats (150 g) and C57/BL6 mice (20 g) by perfusion with collagenase (Gibco-BRL, Paisley, UK) as described elsewhere [(18), (20)]. Cells (5×10^5 cells per well) were plated onto 6-well plates coated with collagen (type I collagen, Collaborative Biomedical, Bedford, Mass., USA). Cultures were maintained in MEM medium supplemented with 10% fetal calf serum (FCS), non-essential amino acids, glutamine 2 mM and antibiotics (all supplied by Gibco-BRL). After 2 h of incubation, the medium was removed and cells were again cultured in the same medium with 5% FCS. […]\nTotal RNA was extracted using TRI reagent (Sigma). […] PCR products were subjected to electrophoresis in 2% agarose gels, followed by staining with ethidium bromide and quantification using Molecular Analyst software (Bio-Rad, Hercules, Calif., USA). […]\nReal time PCR was performed using an iCycler (BioRad) and iQ SYBR Green Supermix (Bio-Rad). In order to monitor the specificity of final PCR products, the latter were analysed by fusion curves and electrophoresis. The amount of each transcript was expressed as n-fold the difference versus expression of the reference gene (β-actin)(2^ΔCt, where ΔCt represents the difference in threshold cycle between target genes and control gene)."}, "male C57/BL6 mice": {"test_system": "male C57/BL6 mice", "assay": "Acute liver damage induced by CCl4 in mice, treatment with AR", "assay_type": "in vivo", "settings": "AR 9.5 μg/mouse i.p. 0.5 h before and 12 h after CCl4", "method": "The experiments were carried out in compliance with the guidelines of the University of Navarra relating to the use of laboratory animals. Cirrhosis was induced with CCl4 in male Wistar rats as described elsewhere [(16) Castilla-Cortazar, I., Garcia, M., Muguerza, B., Quiroga, J., Perez, R., Santidrian, S., Prieto, J. 1997. Hepatoprotective effects of insulin-like growth factor I in rats with carbon tetrachloride-induced cirrhosis. Gastroenterology 113:1682-1691). Two-thirds PH or sham operations were performed on male Wistar rats (150 g) and male C57/BL6 mice (20 g) according to the method of Higgins and Andersen [(17) Higgins, G. M., Andersen, R. M. 1931. Experimental pathology of liver: restoration of liver of the white rat following partial surgical removal. Arch. Pathol. 12:186-202. (18) Latasa, M. U., Boukaba, A., García-Trevijano, E. R., Torres, L., Rodríguez, J. L., Caballería, J., Lu, S. C., López-Rodas, G., Franco, L., Mato, J. M., et al. 2001. Hepatocyte growth factor induces MAT2A expression and histone acetylation in rat hepatocytes. Role in liver regeneration. FASEB J. 10.1096/fj.00-0556fje. (19) Chen, L., Zeng, Y., Yang, H., Lee, T. D., French, S. W., Corrales, F. J., García-Trevijano, E. R., Avila, M. A., Mato, J. M., and Lu, S. C. 2004. Impaired liver regeneration in mice lacking methionine adenosyltransferase 1A. FASEB J. 18: 914-916]. Following sedation, in the sham operated animals the liver was exposed and then returned to the abdominal cavity. […] At the indicated timepoints, mice were subjected to blood sampling and the sera were analysed for alanine and aspartate aminotransferase (ALT and AST) as described elsewhere [(16) and (21) Lasarte, J. J., Sarobe, P., Boya, P., Casares, N., Arribillaga, L., López-Díaz of Cerio, A., Gorraiz, M., Borrás-Cuesta, F., Prieto, J. 2003. […]"}, "[1]": {"settings": "24 h after injection of CCl4 (1 μl/g i.p.)"}}, "data": [{"molecule": "B1", "values": [{"measurement": "DNA synthesis, incorporation of [3H]thymidine to DNA", "setting": "rat hepatocytes", "value": "stimulating the incorporation of [^3H]thymidine to DNA in a dose-dependent manner"}, {"measurement": "levels of mRNA encoding CT-1", "setting": "isolated rat hepatocytes", "value": "increased"}, {"measurement": "levels of mRNA encoding TGFα", "setting": "isolated rat hepatocytes", "value": "increased"}, {"measurement": "degree of histological damage (liver, H&E)", "setting": "male C57/BL6 mice; 24 h after CCl4", "value": "decreased"}, {"measurement": "serum level of ALT", "setting": "male C57/BL6 mice; [1]", "value": "clearly attenuated"}, {"measurement": "serum level of AST", "setting": "male C57/BL6 mice; [1]", "value": "clearly attenuated"}]}]}
